Paper PMC7824710

Key:
[1] = molecular target: recombinant kinase domain of MKK7 (MKK7-KD), residues 101–405 (UniProt O14733); test: other fluorescence titration; tryptophan fluorescence quenching at 334 nm; MKK7-KD at 1.25 µM in phosphate buffer pH 7.5, peptide 10 nM to 140 µM; fit log[inhibitor] vs. response, variable slope
[2] = molecular target: recombinant kinase domain of MKK7 (MKK7-KD), residues 101–405 (UniProt O14733); test: other fluorescence titration; FITC fluorescence quenching; FITC-labelled peptide at 10 nM titrated with soluble MKK7-KD 0-1000 nM; 96-well black plates, 200 µL, excitation 488 nm, emission at 517 nm; one-site total fit

Sequence of UniProt O14733 (O14733 101-405): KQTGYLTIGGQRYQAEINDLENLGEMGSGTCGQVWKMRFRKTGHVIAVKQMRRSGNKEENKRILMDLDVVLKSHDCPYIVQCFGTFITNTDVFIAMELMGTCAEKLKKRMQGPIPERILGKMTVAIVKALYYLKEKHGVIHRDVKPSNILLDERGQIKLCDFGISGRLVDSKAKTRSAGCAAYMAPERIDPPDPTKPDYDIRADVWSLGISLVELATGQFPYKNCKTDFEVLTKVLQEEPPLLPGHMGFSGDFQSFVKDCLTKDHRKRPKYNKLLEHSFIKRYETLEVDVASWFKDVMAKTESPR

Substance	Kd [1] [µM]	Kd [2] [nM]	Δ Fluorescence at 334 nm (at concentrations above 10 µM) [1] [units]
DTP3 (Ac-D-Tyr-D-Arg-D-Phe-NH2) (peptide)	0.24		
FITC-βAla2-DTP3 (peptide)		123	
scramble (SCRB) peptide (Ac-D-Arg-D-Phe-D-Tyr-NH2)	41		4
